Measured values: PMC9892617, “Small-angle x-ray and neutron scattering of MexR and its complex with DNA supports a conformational selection binding model” (Biophysical Journal, 2022)

T1: MexR (Pseudomonas aeruginosa, UniProt P52003 5-139)
T1 sequence: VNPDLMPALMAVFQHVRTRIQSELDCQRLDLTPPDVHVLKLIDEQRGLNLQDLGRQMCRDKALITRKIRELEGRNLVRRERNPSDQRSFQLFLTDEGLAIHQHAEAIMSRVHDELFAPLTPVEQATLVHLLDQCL


Key:
MexR = biological target: T1, MexR; assay: ITC; one MexR dimer per duplex; 20 C; ITC: 20 mM sodium phosphate pH 7.1, 150 mM NaCl, 5 mM beta-mercaptoethanol, 20 C; complex sample buffer: 20 mM sodium phosphate pH 7.1, 150 mM NaCl, 10 mM DTT; conditions: protein: recombinant; tags: 6xHis-thioredoxin tag removed with TEV; chain copies: 2; blunt
[1] = biological target: the molecule itself; assay: SEC-MALS; Superdex 75 Increase 5/150, 20 mM HEPES pH 7.1, 150 mM NaCl, 10 mM DTT, 1% v/v glycerol, 0.3 mL/min, 20°C; MALLS with RI detection

Binder | Kd (MexR) [nM] | stoichiometry N [1]
PII DNA (dsDNA) DNA 1: CTTATTTTAGTTGACCTTATCAACCTTGTTTCAG DNA 2: CTGAAACAAGGTTGATAAGGTCAACTAAAATAAG | 240 | –
MexR (Val5-Leu139) (domain or fragment, MexR, transcriptional repressor of the MarR family, Pseudomonas aeruginosa, UniProt P52003, residues Val5-Leu139; Homodimer in solution; also called apo-MexR; hMexR; source: E. coli BL21 Rosetta 2(DE3), purified (Ni-NTA IMAC, TEV cleavage, reverse IMAC, Superdex 75)) VNPDLMPALMAVFQHVRTRIQSELDCQRLDLTPPDVHVLKLIDEQRGLNLQDLGRQMCRDKALITRKIRELEGRNLVRRERNPSDQRSFQLFLTDEGLAIHQHAEAIMSRVHDELFAPLTPVEQATLVHLLDQCL | – | 2
